For the test, the target named is HLA A*0201 (soluble, the MHC part of the HLA A*0201-peptide complexes). As to the kind of experiment: SPR. Background: Surface plasmon resonance follows binding to a sensor surface in real time, without labels.

With […] peptide (Melan A 26-35), the t½ of the HLA A*0201-peptide complex is 8 h.

The values are drawn from publication PMC3481325.
